Laboratory results: patent US20110200615A1

B1: 1B18 IgG (antibody, V domains shown)
VH: EVQLVQSGGGLVQPGGSRRLSCAASGFYFNAYWMTWVRQAPGKGLEWVANINLDGTEIYYLDSVKGRFTVSRDNVKNSVFLQMSSLRVEDTAVYFCARLEWGGRNGWVSPWGQGTLVTVSS
VL: DVVMTQSPSSVSASVGDRVTITCRASQSISSYLNWYQQRPGKAPKLLIFAASSLQSAVPSRFSGSGSGTDFTLTISSLQPEDFATYYCQQSYSTPPTFGQGTKVEIKR
B2: 1B11 scFv (yeast displayed) (scFv)
scFv: QVQLLQSAGGVVQPGRSLRLSCAASGFIFRTYGMHWVRQAPGKGLEWVAFVSSDGNNKFYSDSVKGRFTIPRDNAKNTLYLQMNSLETEDTAVYYCAKDRYPIDCSGGSCFSYGMDVWGQGTTVTVSSGGGGSGGGGSGGGGSDIVMTQSPSTLSASVGDRVTVTCRASQSINSWLAWYQQKPGKAPKLLIYEASSLESGVPSRFSGSGSGTEFTLTISSLQPDDFATYYCQQYDSYWLTFGGGTKVEIK
B3: 2B25.1 IgG (antibody, V domains shown)
VH: QVQLQESGPGLVKPSQTLSLSCSVSGASITSGTFYWSWIRQHPGKDLEWIGYIYYSGTTYYNPSLKSRVTLSVDTSKNQFSLKVTSLTAADTAVYHCARGVPIYDSSGTYRGTYFDYWGQGTLVTVSS
VL: ESVLTQPPSVSAAPGQKVTISCSGSSSNIGNNYVSWYQQLPGTAPKLLIYDNNRRPSGIPDRFSGSKSGTSATLGITGLQTGDEADYYCGTWDSSLSEVVFGGGTKVTVLG
B4: 2B24 scFv (yeast displayed) (scFv)
scFv: QVQLVESGGGVVQPGRSLRLSCAASGLTFSVYGMHWVRQAPGKGLEWVAVISHTGSEEYYADSVKGRFSISRDNSNNTLFLQMNSLRPEDTAVYYCVKDGPMAAIPFYYFDFWGQGTLVTVSSGGGGSGGGGSGGGGSQSVVTQPPSVSAAPGQKVTISCSGSSSNIGNNYVSWYQQLPGTAPKLLIYDNNKRPSGIPDRFSGSKSGTSATLGITGLQTGDEADYYCGTWDSSLSAGVFGGGTKLTVLG
B5: 1B18 scFv (yeast displayed) (scFv)
scFv: EVQLVQSGGGLVQPGGSRRLSCAASGFYFNAYWMTWVRQAPGKGLEWVANINLDGTEIYYLDSVKGRFTVSRDNVKNSVFLQMSSLRVEDTAVYFCARLEWGGRNGWVSPWGQGTLVTVSSGGGGSGGGGSGGGGSDVVMTQSPSSVSASVGDRVTITCRASQSISSYLNWYQQRPGKAPKLLIFAASSLQSAVPSRFSGSGSGTDFTLTISSLQPEDFATYYCQQSYSTPPTFGQGTKVEIKR
B6: B12.1 IgG (antibody, V domains shown)
VH: QVNLRESGGGVVQPGRSLRLSCAASGFTFSSYALHWVRQTPGKGLEWVALISYDGSNKYYADSVKGRFTISRDNSKNMLYLQMNSLRAEDTAVYYCAKDRSHYGDYVGYLDYWGQGTLVTVSS
VL: AYVLTQPPSVSVAPGKTAAITCEGNNVGNKNVHWYQQRPGQAPVLVVHDDSDRPSGIPERFSGSNSGNTATLTINRVEAGDEADYYCQVWDSSSAQWVFGGGTKLTVLG
B7: 2B23 scFv (yeast displayed) (scFv)
scFv: EVQLLESGGGLVQPGGSLRLSCAASGFTFSNYPMSWVRQAPGKGLAWVSSLTASGDNTFYADSVKGRFTISRDNSNNTLYLQMHSLRAEDTAVYYCAKALVGRYDISTGYYRPVMDSWGQGTLVTVSSGGGGSGGGGSGGGGSDIQMTQSPPSLSASVGDRVTITCRTSQGFTSALAWYQQKPGEPPKLLIYDASKLESGVPSRFSGSGSGTNFALTISSLQPEDFATYFCQQSNSYPLTFGGGTKVEIKR
B8: 2B27 scFv (yeast displayed) (scFv)
scFv: EVQLQESGPGLVKPSETLSVTCAVSGGSISSSNYSWAWIRQPPGKGLEWIGTMYYSGSTHYHPSLKSRVTISVDTSKSQLSLKLSSVTAADTAVYYCARRRLLGPSPYYFDYWGQGTLVTVSSGGGGSGGGGSGGGGSQSVVTQPPSVSGAPGQRVTISCSGSSSNIGAGYDVHWYQQLPGTAPKLLIYGNNNRPSGVPDRFSGSKSGTSASLAITGLQAEDEADYYCQSYDSSLSAYVFGTGTKLTVLG
B9: 1B10 scFv (yeast displayed) (scFv)
scFv: QVQLVESGGGVVQPGRSLRLSCAASGFTFSHYGMHWVRQSPGKGLEWVAVIWYDGRNPYYAASVKGRFTISRDNDKNTLYLQMNSLRAEDTAVYYCVKDLTRFHDTTFGVFEMWGPGTTVTVSSGGGGSGGGGSGGGGSEIVLTQSPSSLSASVGDRITITCRASQSISSWLAWYQQKPGKAPMVLIYKASSLENGVPSRFSGSGSGTEFTLTISSLQPDDFATYYCQQYSTYSRTFGQGTKVEIKR
B10: 2B23 IgG (antibody, V domains shown)
VH: EVQLLESGGGLVQPGGSLRLSCAASGFTFSNYPMSWVRQAPGKGLAWVSSLTASGDNTFYADSVKGRFTISRDNSNNTLYLQMHSLRAEDTAVYYCAKALVGRYDISTGYYRPVMDSWGQGTLVTVSS
VL: DIQMTQSPPSLSASVGDRVTITCRTSQGFTSALAWYQQKPGEPPKLLIYDASKLESGVPSRFSGSGSGTNFALTISSLQPEDFATYFCQQSNSYPLTFGGGTKVEIKR
B11: B11E8 IgG (antibody, V domains shown)
VH: EVQLVQSGGGVVQPGRSLRLSCAASGFIFRTYGMHWVRQAPGKGLEWVAFVSSDGNNKFYSDSVKGRFTISRDNAKNTLYLQMNSLETEDTAMYYCAKDRYPIDCSGGSCFSYGMDVWGQGTTVTVSS
VL: EIVLTQSPATLSVSPGERATLSCRASQSVSKFLAWYQQKRGQAPRLLIYGASTRATGIPARFSGSGSGTEFALTISSLQSEDFADYYCQQYDNWPITFGQGTRLEIKR
B12: 2B25 scFv (yeast displayed) (scFv)
scFv: QVQLQESGPGLVKPSQTLSLSCSVSGASITSGTFYWSWIRQHPGKDLEWIGYIYYSGTTYYNPSLKSRVTLSVDTSKNQFSLKVTSLTAADTAVYHCARGVPIYDSSGTYRGTYFDYWGQGTLVTVSSGGGGSGGGGSGGGGSQPGLTQPPSASGTPGQRVTISCSGSSSNVGSNTVNWYQQLPGTAPKLLIYRNDQRPSGVPDRFSGSKSGASASLAISGLRSEDEADYYCAAWDDSLNGLLFGGGTQLTVLG
B13: 1B10.1 IgG (antibody, V domains shown)
VH: QVQLVESGGGVVQPGRSLRLSCAASGFTFSHYGMHWVRQSPGKGLEWVAVIWYDGRNPYYAASVKGRFTISRDNDKNTLYLQMNSLRAEDTAVYYCVKDLTRFHDTTFGVFEMWGPGTTVTVSS
VL: EIVLTQSPSFVSASVGDRVTITCRASQGISSWLAWYQQKPGKAPKLLIYAASSLQSGVPSRFSGSGSGTEFTLTISSLQPDDFATYYCQQYSSLYTFGQGTKVDIKR

How the values were obtained:
[1] = target: Botulinum neurotoxin type B, subtype B3 (BoNT/B3) (Clostridium botulinum); assay: KinExA flow fluorimetry; IgG in solution
[2] = target: Botulinum neurotoxin type B, subtype B4 (BoNT/B4) (Clostridium botulinum); assay: KinExA flow fluorimetry; IgG in solution
[3] = target: Botulinum neurotoxin type B, subtype B3 (BoNT/B3) (Clostridium botulinum); assay: flow cytometry; yeast-displayed scFv, soluble toxin
[4] = target: Botulinum neurotoxin type B, subtype B4 (BoNT/B4) (Clostridium botulinum); assay: as above

| Binder | Kd [1] [nM] | Kd [2] [nM] | Kd [3] [nM] | Kd [4] [nM] |
| --- | --- | --- | --- | --- |
| B1 | 0.972 | 0.021 |  |  |
| B2 |  |  | 4.43 |  |
| B3 | 0.0177 | 0.03 |  |  |
| B4 |  |  | 4 | 0.72 |
| B5 |  |  | 3.04 | 1.7 |
| B6 | 0.0462 | 0.625 |  |  |
| B7 |  |  | 0.25 | 0.19 |
| B8 |  |  | 2.32 | 0.77 |
| B9 |  |  | > 5000 | 4.69 |
| B10 | 0.048 | 0.0552 |  |  |
| B11 | 0.0156 |  |  |  |
| B12 |  |  | 0.93 | 0.68 |
| B13 | 1.2 | 0.00047 |  |  |
